Patent publication US20040001835A1, “Prevention or treatment of cancer using integrin alphavbeta3 antagonists in combination with other agents” (MedImmune, Inc., priority 2002, published 2004)

Experiments:
[1] = target: Hamster Integrin αvβ3 (Hamster); experiment: binding of 125I-labeled Vitaxin to cell lines
[2] = target: Rabbit Integrin αvβ3 (Rabbit); experiment: binding of 125I-labeled Vitaxin to cell lines
[3] = target: human Integrin αVβ3 (human) (UniProt P06756); experiment: binding of 125I-labeled Vitaxin to M21 human melanoma cells
Sequence of human Integrin αVβ3 (human) (P06756 31-1048, chain 1 of 2): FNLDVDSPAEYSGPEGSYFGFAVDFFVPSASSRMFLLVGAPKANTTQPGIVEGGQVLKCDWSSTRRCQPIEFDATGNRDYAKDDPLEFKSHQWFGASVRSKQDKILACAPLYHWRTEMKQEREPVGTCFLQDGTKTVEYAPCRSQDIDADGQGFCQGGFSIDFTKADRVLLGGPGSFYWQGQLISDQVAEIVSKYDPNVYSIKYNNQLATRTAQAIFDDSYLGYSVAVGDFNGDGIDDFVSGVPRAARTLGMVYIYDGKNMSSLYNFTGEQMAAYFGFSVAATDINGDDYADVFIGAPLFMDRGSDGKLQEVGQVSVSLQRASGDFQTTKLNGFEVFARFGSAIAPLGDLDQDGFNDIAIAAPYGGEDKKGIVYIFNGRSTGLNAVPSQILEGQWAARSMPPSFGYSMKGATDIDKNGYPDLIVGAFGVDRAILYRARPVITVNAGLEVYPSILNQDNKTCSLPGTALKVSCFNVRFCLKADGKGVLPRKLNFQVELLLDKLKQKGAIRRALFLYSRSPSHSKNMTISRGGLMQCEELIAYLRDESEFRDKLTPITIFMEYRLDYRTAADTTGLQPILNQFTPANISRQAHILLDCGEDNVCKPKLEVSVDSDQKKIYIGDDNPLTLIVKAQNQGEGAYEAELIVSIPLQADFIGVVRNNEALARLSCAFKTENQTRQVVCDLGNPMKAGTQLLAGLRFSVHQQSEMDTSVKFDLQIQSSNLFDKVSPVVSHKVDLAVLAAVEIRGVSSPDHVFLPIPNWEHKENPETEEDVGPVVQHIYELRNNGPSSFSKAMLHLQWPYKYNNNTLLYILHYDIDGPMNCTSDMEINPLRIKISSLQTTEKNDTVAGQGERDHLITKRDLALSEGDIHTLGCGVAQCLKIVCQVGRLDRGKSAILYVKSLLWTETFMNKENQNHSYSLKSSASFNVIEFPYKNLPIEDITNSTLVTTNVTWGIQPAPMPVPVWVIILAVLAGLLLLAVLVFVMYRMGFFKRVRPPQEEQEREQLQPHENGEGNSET
Sequence of human Integrin αVβ3 (human) (P05106 27-788, chain 2 of 2, further chain): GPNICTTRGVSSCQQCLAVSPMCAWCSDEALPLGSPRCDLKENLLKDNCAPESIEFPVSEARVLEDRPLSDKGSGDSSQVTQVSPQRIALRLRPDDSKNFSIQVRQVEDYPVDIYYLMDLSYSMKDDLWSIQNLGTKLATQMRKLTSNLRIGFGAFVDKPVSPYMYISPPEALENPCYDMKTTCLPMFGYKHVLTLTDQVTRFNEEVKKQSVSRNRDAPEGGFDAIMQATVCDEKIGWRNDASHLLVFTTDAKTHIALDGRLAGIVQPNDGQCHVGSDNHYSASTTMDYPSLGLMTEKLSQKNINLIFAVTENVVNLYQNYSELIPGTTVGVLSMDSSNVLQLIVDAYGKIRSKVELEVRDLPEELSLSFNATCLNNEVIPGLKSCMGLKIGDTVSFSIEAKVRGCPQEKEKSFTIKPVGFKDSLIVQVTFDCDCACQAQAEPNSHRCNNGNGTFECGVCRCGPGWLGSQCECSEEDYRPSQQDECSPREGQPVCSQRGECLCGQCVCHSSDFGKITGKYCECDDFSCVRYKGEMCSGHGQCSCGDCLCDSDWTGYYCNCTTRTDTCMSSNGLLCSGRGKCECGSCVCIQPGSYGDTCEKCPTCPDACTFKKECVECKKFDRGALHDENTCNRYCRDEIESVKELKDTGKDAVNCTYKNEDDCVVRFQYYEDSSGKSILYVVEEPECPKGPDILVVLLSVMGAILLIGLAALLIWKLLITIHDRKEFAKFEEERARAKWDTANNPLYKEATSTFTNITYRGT

[4] = target: Rabbit Integrin αvβ3 (Rabbit); experiment: binding of 125I-labeled Vitaxin to VX7 rabbit carcinoma cells
[5] = target: Hamster Integrin αvβ3 (Hamster); experiment: binding of 125I-labeled Vitaxin to CCL-49 hamster melanoma cells
[6] = target: human Integrin αVβ3 (human) (UniProt P06756); experiment: binding of 125I-labeled Vitaxin to HUVEC primary human endothelium
[7] = target: Rabbit Integrin αvβ3 (Rabbit); experiment: binding of 125I-labeled Vitaxin to RK1 rabbit kidney epithelium cells
[8] = target: human Integrin αVβ3 (human) (UniProt P06756); experiment: flow cytometry, M21 melanoma cells, 0.5 µg antibody per 5x10^5 cells, against isotype matched control
[9] = target: Rat Integrin αvβ3 (Rat) (UniProt Q8R2H2); experiment: flow cytometry, RG2 rat glioma cells, 0.5 µg antibody per 5x10^5 cells, against isotype matched control
Sequence of Rat Integrin αvβ3 (Rat) (Q8R2H2 26-787): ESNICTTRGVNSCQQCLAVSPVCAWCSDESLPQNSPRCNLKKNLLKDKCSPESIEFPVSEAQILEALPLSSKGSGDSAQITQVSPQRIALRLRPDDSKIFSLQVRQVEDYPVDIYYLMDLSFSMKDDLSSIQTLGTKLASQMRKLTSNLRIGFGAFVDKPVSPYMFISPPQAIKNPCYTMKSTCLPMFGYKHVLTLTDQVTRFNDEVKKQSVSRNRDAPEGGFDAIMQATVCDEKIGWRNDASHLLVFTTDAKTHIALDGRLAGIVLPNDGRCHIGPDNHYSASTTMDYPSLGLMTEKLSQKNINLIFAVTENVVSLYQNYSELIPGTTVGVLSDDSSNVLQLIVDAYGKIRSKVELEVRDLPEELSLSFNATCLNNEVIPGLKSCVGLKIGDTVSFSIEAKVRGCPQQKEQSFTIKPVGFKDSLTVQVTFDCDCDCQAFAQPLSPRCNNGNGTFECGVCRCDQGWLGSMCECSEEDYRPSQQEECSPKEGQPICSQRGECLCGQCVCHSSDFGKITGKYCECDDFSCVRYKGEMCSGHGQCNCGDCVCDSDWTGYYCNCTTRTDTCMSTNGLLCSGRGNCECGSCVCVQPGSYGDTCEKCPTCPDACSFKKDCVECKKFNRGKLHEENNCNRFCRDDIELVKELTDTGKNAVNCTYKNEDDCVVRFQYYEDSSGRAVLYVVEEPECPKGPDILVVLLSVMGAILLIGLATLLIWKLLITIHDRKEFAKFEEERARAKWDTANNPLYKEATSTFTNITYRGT

[10] = target: human Integrin αVβ3 (human) (UniProt P06756); experiment: flow cytometry, HMVEC endothelial cells, 0.5 µg antibody per 5x10^5 cells, against isotype matched control
[11] = target: Rabbit Integrin αvβ3 (Rabbit); experiment: flow cytometry, VX7 rabbit carcinoma cells, 0.5 µg antibody per 5x10^5 cells, against isotype matched control
[12] = target: Hamster Integrin αvβ3 (Hamster); experiment: flow cytometry, CCL-49 hamster melanoma cells, 0.5 µg antibody per 5x10^5 cells, against isotype matched control

## Vitaxin® (humanized monoclonal antibody MEDI-522)
[1]
  fold lower affinity than for human αvβ3: 2 to 3 fold
[2]
  fold lower affinity than for human αvβ3: 4 to 10 fold
[3]
  Binding Sites (binding sites): 130000
  Kd: 2.2 nM
[4]
  Binding Sites (binding sites): 160000
  Kd: 8.9 nM
[5]
  Kd: 6.9 nM
[6]
  Binding Sites (binding sites): 81000
  Kd: 3.3 nM
[7]
  Binding Sites (binding sites): 42000
  Kd: 23 nM
[8]
  Fold Increase Over Control (mean channel fluorescence): 73 fold
[9]
  Fold Increase Over Control (mean channel fluorescence): 0.95 fold
[10]
  Fold Increase Over Control (mean channel fluorescence): 8.9 fold
[11]
  Fold Increase Over Control (mean channel fluorescence): 17 fold
[12]
  Fold Increase Over Control (mean channel fluorescence): 12 fold

## LM609, mouse anti-human αVβ3 Integrin mAb (antibody)
[8]
  Fold Increase Over Control (mean channel fluorescence): 65 fold
[9]
  Fold Increase Over Control (mean channel fluorescence): 2.3 fold
[10]
  Fold Increase Over Control (mean channel fluorescence): 4.3 fold
[11]
  Fold Increase Over Control (mean channel fluorescence): 3 fold
[12]
  Fold Increase Over Control (mean channel fluorescence): 7.2 fold

## F11, mouse anti-rat β3 mAb (antibody)
[8]
  Fold Increase Over Control (mean channel fluorescence): 0.99 fold
[9]
  Fold Increase Over Control (mean channel fluorescence): 11 fold
[11]
  Fold Increase Over Control (mean channel fluorescence): 1 fold
